Results on two molecules are retold here after US20240002547A1 (AEBI, published 2024).

Positions of bridges follow the written chain, without caps; N, C: chain ends. No end group written: not given here.

The target in this assay is human eukaryotic elongation factor 2 (eEF2) (human, UniProt P13639 2-858). The assay is described as follows: peptide screening by the technique of WO 2007/010525.

As to CRRGSRASGAHC (disulfide 1-12 (inferred)) [Tox2], the binding result was “binds”.

In the case of CSARWGPTMPWC (disulfide 1-12 (inferred)) [Tox1], the binding result is on record as “binds”.
